Here are results for 7 substances from patent US20080286312A1.

In test [1] the target is H-2K^b (mouse) (UniProt P01901). Nature of the test: derived from MFI of 25D-1.16 and anti-H-2K^b staining of Y317-2 cells at 37° C.
In test [2] the target is K^b/OVA257-264 complex on Y317-2 cells (H-2K^b with OVA257-264 linked to human membranal β2m) (mouse; chicken; human). Briefly: flow cytometry, RMA-S transfectant Y317-2, 37° C. (A flow cytometer gives signals particle by particle.)
The next test addresses H-2K^d (mouse) (UniProt P01902). Briefly: cell-based or functional assay.
Chain of UniProt P01902 (P01902 22-305 limits assumed): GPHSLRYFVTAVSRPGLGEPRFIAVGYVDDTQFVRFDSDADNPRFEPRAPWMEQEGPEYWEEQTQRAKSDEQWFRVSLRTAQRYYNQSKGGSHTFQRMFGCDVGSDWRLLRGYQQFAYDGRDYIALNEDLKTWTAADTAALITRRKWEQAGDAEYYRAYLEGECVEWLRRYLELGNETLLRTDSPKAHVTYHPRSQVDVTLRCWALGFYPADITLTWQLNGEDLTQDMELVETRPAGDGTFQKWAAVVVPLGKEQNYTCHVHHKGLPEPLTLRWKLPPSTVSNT
Test [3] concerns the target H-2K^k (mouse) (UniProt P04223). Nature of the test: flow cytometry with QIFIKIT, parental MD45 cells.
Chain of UniProt P04223 (P04223 22-369 limits assumed): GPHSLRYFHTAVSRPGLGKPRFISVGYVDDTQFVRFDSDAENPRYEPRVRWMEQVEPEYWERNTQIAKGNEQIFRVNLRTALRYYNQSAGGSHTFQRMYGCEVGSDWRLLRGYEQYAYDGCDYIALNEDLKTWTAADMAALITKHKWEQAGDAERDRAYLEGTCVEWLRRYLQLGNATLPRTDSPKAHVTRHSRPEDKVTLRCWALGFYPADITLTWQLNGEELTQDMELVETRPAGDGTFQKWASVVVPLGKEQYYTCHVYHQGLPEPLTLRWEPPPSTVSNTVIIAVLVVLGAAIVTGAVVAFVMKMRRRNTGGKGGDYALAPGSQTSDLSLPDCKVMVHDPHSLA
For test [4] the target is unchanged. Briefly: flow cytometry with QIFIKIT, MD45 transfectant 425-44.
For test [5] the target is unchanged. Nature of the test: flow cytometry with QIFIKIT, MD45 transfectant 427-24.
Test [6] concerns the target hβ2m-CD40 (human β2m fused through a bridge to the mouse CD40 transmembrane and cytoplasmic region) (human; mouse) (UniProt P61769). Briefly: cell-based or functional assay.
Test [7] deals with NP50-57 dcβ2m (NP50-57 - linker - human β2m - bridge - mouse CD3 ζ) (influenza virus; human; mouse) (UniProt P61769). Briefly: flow cytometry with QIFIKIT, MD45 transfectant 425-44.
The target in test [8] is Ha255-262 dcβ2m (Ha255-262 - linker - human β2m - bridge - mouse CD3 ζ) (influenza virus; human; mouse) (UniProt P61769). Briefly: flow cytometry with QIFIKIT, MD45 transfectant 427-24.
The target of test [9] is H-2K^k (mouse) (UniProt P04223). Briefly: derived from QIFIKIT flow cytometry with Fab13.4.1 and AF3-12.1 on 427-24 cells.
Test [10] deals with H-2K^b (mouse) (UniProt P01901). Briefly: flow cytometry, RMA-S transfectant Y317-2, 37° C.

Chain of UniProt P01901 (P01901 22-369 limits assumed): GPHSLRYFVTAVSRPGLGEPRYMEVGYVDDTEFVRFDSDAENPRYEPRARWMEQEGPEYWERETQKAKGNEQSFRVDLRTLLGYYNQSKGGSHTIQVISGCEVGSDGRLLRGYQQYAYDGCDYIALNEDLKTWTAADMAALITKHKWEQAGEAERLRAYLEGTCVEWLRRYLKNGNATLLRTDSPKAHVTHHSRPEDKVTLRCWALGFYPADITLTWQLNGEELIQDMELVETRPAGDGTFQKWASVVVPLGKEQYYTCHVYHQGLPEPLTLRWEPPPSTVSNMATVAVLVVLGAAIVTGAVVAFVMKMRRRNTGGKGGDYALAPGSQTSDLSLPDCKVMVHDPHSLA

In the test with H-2K^b (mouse) [1], “OVA257-264 dcβ2m with human β2m and H-2K^b anchor (from UniProt P61769 21-119)” came in with a H-2K^b occupancy of 57%.

In turn, “25-D1.16 mAb specific to the complex H-2K^b/OVA257-264 (antibody)” registered a mean fluorescence intensity in [2] of 69.7 MFI.

In the test with H-2K^d (mouse), “hβ2m-CD40 (human β2m fused through a bridge to the mouse CD40 transmembrane and cytoplasmic region) (from UniProt P61769 21-119; P27512 194-289)” showed a reduction of total cellular IκBα (immunoblot) in A20 transfectant after incubation with an anti-H-2 K^d mAb of 71%.

Take AF3-12.1 anti-K^k mAb (antibody): the figures for the quantity of surface antigen (QIFIKIT) with H-2K^k (mouse) [3], in the test with H-2K^k (mouse) [4] and with H-2K^k (mouse) [5] were 10900, 37600 and 28600, respectively.

Substance BM-63 anti-human β2m mAb (antibody) came in with a decrease of total cellular IκBα (immunoblot) in A20 transfectant in test [6] of 39%. The quantity of surface antigen (QIFIKIT) in test [7] worked out at 467000; in [8] it was 173000.

The substance “Ha255-262 dcβ2m (Ha255-262 - linker - human β2m - bridge - mouse CD3 ζ) (from UniProt P61769 21-119; P24161 31-164)” came in with an occupation of surface H-2K^k molecules with H-2K^k (mouse) [9] of 20%.

With 20-8-4 anti-H-2K^b mAb (antibody), in the test with H-2K^b (mouse) [10], the mean fluorescence intensity is 122 MFI.
